As a reminder, the Ki is the dissociation constant of the complex between target and ligand, obtained from inhibition or displacement. Lower therefore signals higher affinity.

We go through 1 molecule from patent US5908827, “Protein from urine named component B” (Applied Research Systems ARS Holding N.V., dated 1999).

This assay addresses TGF-alpha receptor obtained from A 431 cell membranes (Homo sapiens (Human), UniProt P00533). Kind of assay: displacement of I^125-TGF-alpha from its receptor on A 431 cell membranes (radioligand competition).

B1: Component B (other)
chain: LKCYTCKEPMTSASCRTITRCKPEDTACMTTLVTVEAEYPFNQSPVVTRSCSSSCVATDPDSIGAAHLIFCCFRDLCNSEL
modifications: SO4 group bound to Tyr (39); five disulfide bridges (urinary material)
Regarding B1, the affinity, expressed as Ki, was 0.077 nM.
